The record followed here is PMC11172241, “Insight into the Mechanism of Lysogeny Control of phiCDKH01 Bacteriophage Infecting Clinical Isolate of Clostridioides difficile”.

Series [1] has as its system T1, phiCDKH01 XRE family repressor (XRE-His) (Clostridioides difficile phage phiCDKH01 (host strain CD34/Sr)), UPI000235AC6A.
T1 sequence: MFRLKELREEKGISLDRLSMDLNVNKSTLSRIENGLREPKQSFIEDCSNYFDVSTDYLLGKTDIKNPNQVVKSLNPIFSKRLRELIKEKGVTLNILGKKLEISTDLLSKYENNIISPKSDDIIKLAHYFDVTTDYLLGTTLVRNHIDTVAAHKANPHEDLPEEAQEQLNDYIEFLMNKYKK
Briefly: EMSA. The conditions noted are these: 50 mM Tris-HCl pH 7.5, 50 mM NaCl, 200 mM KCl, 50 mM MgCl2, 5 mM EDTA, 5 mM DTT, 0.25 mg/mL BSA, 15 min, room temperature, 0.1 pmol DNA, 0-200 ng protein.

For series [2], the target named is T2, phiCDKH01 XRE family repressor (XRE-His) (Clostridioides difficile phage …, UniProt UPI000235AC6A 1-181).
T2 sequence: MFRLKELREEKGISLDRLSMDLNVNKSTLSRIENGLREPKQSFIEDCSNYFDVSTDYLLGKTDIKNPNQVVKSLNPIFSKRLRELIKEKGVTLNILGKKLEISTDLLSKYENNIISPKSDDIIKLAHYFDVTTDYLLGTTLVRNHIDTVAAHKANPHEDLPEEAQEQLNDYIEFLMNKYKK
Briefly: EMSA; 50 mM Tris-HCl pH 7.5, 50 mM NaCl, 200 mM KCl, 50 mM MgCl2, 5 mM EDTA, 5 mM DTT, 0.25 mg/mL BSA, 15 min, room temperature; 0.1 pmol DNA, 0-200 ng protein; 5% TBE gel. To be noted: protein: recombinant; tag encoded at 3' end by primer S4); chain copies: 2; blunt. For orientation: A gel shift assay detects complexes by their altered migration in electrophoresis.

On to “GCAACTTTTTTTGTTATTACAATTAAAATTGCCAAAAAAGCAACAAAAATATTGACTTTTAACATTTTTGTTGCTATTATATAAACAAGAACTTGCTTATATAGCAAAAAGTTAGAGGGTGA (double strand) [S3 (Methods text says S4)]”, for which the binding entry in series [1] is reported as “binds”.

Regarding “GTTGCTATAATGTAAATAAAAGTTGCTATAATGAAAACTACAATAAAGGATGATTTTATATGTTTAGATTAAAAGAACTGAGAGAAG (double strand) [S1]”, the binding result in series [1] is recorded as “binds”.

Turning to “CATTATAGCAACTTTTATTTACATTATAGCAACTTTTTTTGTTATTACAATTAAAATTGCCAAAAAAGCAACAAAAATATTGACTTTTAACATTTTTGTTGCTATTATATAA (double strand) [S2]”, the binding entry in series [1] is reported as “binds”.

B1: BIND (minimal XRE-binding fragment) (dsDNA)
DNA 1: TTACAATTAAAATTGCCAAAAAAGCAACAA
DNA 2: TTGTTGCTTTTTTGGCAATTTTAATTGTAA
Regarding B1, the binding result in series [2] is “binds”.
